Experimental findings from US20190316091A1 are described below.

The target of this assay is immune complexes of Dylight 650-labeled bovine serum albumin, polyclonal rabbit anti-BSA and human serum complement (bovine) (UniProt P02769). Nature of the assay: cell-based or functional assay.
Sequence of UniProt P02769 (P02769 25-607, one chain of several): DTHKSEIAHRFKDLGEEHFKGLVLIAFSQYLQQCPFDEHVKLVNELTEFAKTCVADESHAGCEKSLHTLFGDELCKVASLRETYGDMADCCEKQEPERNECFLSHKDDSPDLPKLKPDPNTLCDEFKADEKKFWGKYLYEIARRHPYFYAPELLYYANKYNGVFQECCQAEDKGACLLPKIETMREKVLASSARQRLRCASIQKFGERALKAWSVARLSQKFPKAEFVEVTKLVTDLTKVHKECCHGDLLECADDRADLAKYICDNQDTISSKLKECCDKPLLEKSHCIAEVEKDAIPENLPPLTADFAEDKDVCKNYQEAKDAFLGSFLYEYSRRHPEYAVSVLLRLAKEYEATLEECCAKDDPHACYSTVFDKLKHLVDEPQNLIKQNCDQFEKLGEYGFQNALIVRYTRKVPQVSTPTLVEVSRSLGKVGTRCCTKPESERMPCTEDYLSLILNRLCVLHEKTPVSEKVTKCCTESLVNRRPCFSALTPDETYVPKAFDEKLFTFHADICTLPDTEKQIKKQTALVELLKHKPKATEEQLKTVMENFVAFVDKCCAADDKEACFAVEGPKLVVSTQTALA

As to “complement receptor 1 (CR1) over-expressed on the surface of cultured erythroid cells (from UniProt P17927 42-2039)”, the uptake of labeled immune complexes by PMA-activated U937 macrophages in co-culture (flow cytometry fluorescence) was found to be 2 fold.
